T1: His-SPA (Storage Protein Activator, bZIP) (UniProt A0A9R1IS55 1-409)
T1 sequence: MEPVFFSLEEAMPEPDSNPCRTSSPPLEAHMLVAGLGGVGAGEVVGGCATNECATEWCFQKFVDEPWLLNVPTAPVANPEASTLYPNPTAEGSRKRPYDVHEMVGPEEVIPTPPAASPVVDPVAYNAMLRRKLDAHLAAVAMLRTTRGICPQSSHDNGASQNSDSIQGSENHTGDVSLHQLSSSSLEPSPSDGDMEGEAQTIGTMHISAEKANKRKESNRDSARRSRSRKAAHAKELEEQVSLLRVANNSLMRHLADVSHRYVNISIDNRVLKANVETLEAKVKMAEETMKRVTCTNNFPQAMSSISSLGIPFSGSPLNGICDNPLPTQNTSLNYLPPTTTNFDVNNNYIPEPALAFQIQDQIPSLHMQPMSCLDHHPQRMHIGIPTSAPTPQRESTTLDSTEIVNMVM

B1: mutated G-box (dsDNA)
DNA 1: GCCCATTCTCTGGCTTTAGCAGACC
DNA 2: GGTCTGCTAAAGCCAGAGAATGGGC
B2: GLM2 (-626) (dsDNA)
DNA 1: ATAGATATTGTGAGTCAGCATGGAT
DNA 2: ATCCATGCTGACTCACAATATCTAT
B3: glm1 (dsDNA)
DNA 1: ATAGATGTTTTTATTAATTGGATAG
DNA 2: CTATCCAATTAATAAAAACATCTAT

The binders below were run against T1, His-SPA (Storage Protein Activator, …) (assay: EMSA; 10 mM Tris pH 7.5, 100 mM KCl, 2 mM DTT, 2 mM EDTA, 10% glycerol, 0.05% nonyl phenoxypolyethoxylethanol, 0.5 mM PMSF, 100 ng/uL poly(dI.dC), 250 ng/uL fish sperm DNA; 20 fmol probe, 560 ng-4 ug protein in 20 uL; 30 min, room temperature; gel at 4 C). Details: protein: recombinant; tags: His tag (pDEST17); chain copies: 2; label: 3' biotin on each strand; blunt.
B1: no binding. B2: binds. B3: no binding.

— article PMC4228979, “Conserved cis-regulatory modules in promoters of genes encoding wheat high-molecular-weight glutenin subunits”
